{"source": "patent US20250206846A1", "about": "(YEDA RESEARCH AND DEVELOPMENT, published 2025)", "binders": {"B1": {"name": "anti-KLK4 monoclonal antibody (antibody, IgG1, V domains shown)", "VH": "EVQLVESGGGLVQPKGSLKLSCAASGFTFKTYAMTWVRQTPGKGLEWVARIRNKNNNYATFYADSVKDRFTISRDDSQSMLYLLMNNLKTEDTAIYYCVRVNYWYFDVWGAGTTVTVSS", "VL": "EIVMTQSTAIMSASPGEKVTMTCRASSSVSSTYLHWYQQKSGASPKLWIYSTSNLASGVPARFSGSGSGTSYSLTVSSVEAEDAATYYCQQYSSYPLTFGGGTKLEIK", "notes": "Monoclonal antibody from a hybridoma of immunized balb-c mice; also called anti-KLK4 antibody"}}, "key": {"[1]": {"biological_target": "T1, Loop-KLK4 synthetic cyclized peptide (CGLHSLEADQEPGSCC) (human, bridge (positions not given here); also: cyclized, chemistry not given here)", "T1 construct": "The peptide was coupled to KLH for immunization and to BSA for the ELISA tests of sera; no carrier is stated there; also called Loop3-KLK4; KLK4-Loop3", "T1 peptide": "CGLHSLEADQEPGSCC", "experiment": "ELISA, plate coated with Loop-KLK4 peptide; target: Loop3-KLK4 peptide", "method": "(§1) ELISA binding assay: A ninety-six-well plate (Nunc) was coated with KLK4 and Loop-KLK4 at 10 µg/ml. After blocking with 2% BSA in PBS, the plate was incubated with the antibodies for 1 h at 37° C. Bound antibodies were detected by peroxidase-conjugated antibody goat anti-human (Jackson ImmunoResearch). EC₅₀ was calculated with GraphPad Prism from […] curve fitting analysis.\n(§2) Interaction of KLK4 monoclonal antibody was tested by ELISA using KLK4 & KLK4-Loop3. As a control, anti-GST monoclonal antibody was used."}, "recombinant human KLK4": {"biological_target": "T2, recombinant human KLK4 (human, UniProt Q9Y5K2 31-253)", "T2 construct": "also called Kallikrein-4; Full KLK4", "T2 sequence (Q9Y5K2 31-253 H197Q limits assumed)": "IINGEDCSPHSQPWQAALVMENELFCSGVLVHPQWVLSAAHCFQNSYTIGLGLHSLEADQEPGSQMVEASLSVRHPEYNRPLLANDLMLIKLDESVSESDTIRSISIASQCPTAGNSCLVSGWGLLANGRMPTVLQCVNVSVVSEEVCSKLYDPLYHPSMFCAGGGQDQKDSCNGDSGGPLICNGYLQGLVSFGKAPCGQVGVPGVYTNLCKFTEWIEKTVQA", "experiment": "ELISA, plate coated with KLK4; target: full KLK4", "method": "as §1, §2"}}, "note": "Where no end group is shown, it is not given here."}
{"binder": "B1", "values": [{"measurement": "EC50", "setting": "[1]", "result": 0.271, "unit": "nM"}, {"measurement": "EC50", "setting": "recombinant human KLK4", "result": 0.272, "unit": "nM"}]}
